{"source": "paper doi:10.1101/2024.12.01.621710", "about": "(bioRxiv, 2024)", "molecules": {"B1": {"name": "MBP-CpoS C-ter (domain or fragment)", "chain": "ARARSRRVEIERQLEVVSMQIEELEEEYKALSEVYRANLEARRAVSKYCQELEEKILDLCKRHAATICSIEEDAKQEIRHQTERFKQRLQQNQNTCSQLTAELCKLRSENKALSERLQVQASRRKK"}}, "key": {"[1]": {"molecular_target": "MBP-InaC C-ter (Chlamydia trachomatis serovar L2 (LGV 434/Bu))", "experiment": "SEC + other: mass photometry"}, "[2]": {"molecular_target": "MBP-IPAM C-ter (Chlamydia trachomatis serovar L2 (LGV 434/Bu))", "experiment": "SEC + other: mass photometry"}, "[3]": {"molecular_target": "MBP-IncA C-ter (Chlamydia trachomatis serovar L2 (LGV 434/Bu))", "experiment": "SEC + other: mass photometry"}, "[4]": {"molecular_target": "the molecule itself"}, "[5]": {"molecular_target": "the molecule itself", "experiment": "SEC + other: mass photometry"}}, "note": "Several values for one entry are separate records, joined by “and”; a condition that tells them apart may be missing. Equal entries are not always repeated. Where two headings read alike, the source gives them in different places.", "data": [{"molecule": "MBP-InaC C-ter (domain or fragment)", "values": [{"measurement": "stoichiometry N", "setting": "[1]", "value": "2 and 3"}]}, {"molecule": "MBP-IPAM C-ter (domain or fragment)", "values": [{"measurement": "stoichiometry N", "setting": "[2]", "value": "2 and 3"}]}, {"molecule": "MBP-IncA C-ter (domain or fragment)", "values": [{"measurement": "stoichiometry N", "setting": "[3]", "value": 4}]}, {"molecule": "B1", "values": [{"measurement": "stoichiometry N", "setting": "[4]", "value": 2}, {"measurement": "stoichiometry N", "setting": "[5]", "value": "4 and 8"}]}]}
